According to patent US20210403565A1 (BIOATLA, published 2021):

T1: recombinant human CTLA4 extracellular domain (human, UniProt P16410 36-161)
T1 construct: extracellular domain; also called huCTLA-4
T1 sequence (looked up): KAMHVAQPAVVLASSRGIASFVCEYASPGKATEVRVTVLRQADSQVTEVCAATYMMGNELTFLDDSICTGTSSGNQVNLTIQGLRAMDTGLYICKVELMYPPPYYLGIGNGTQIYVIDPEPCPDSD

T2: human CTLA4 expressed on the cell surface of CHO cells (human, UniProt P16410 36-223)
T2 construct: whole, on cells; also called CHO-huCTLA4; huCTLA4
T2 sequence (looked up): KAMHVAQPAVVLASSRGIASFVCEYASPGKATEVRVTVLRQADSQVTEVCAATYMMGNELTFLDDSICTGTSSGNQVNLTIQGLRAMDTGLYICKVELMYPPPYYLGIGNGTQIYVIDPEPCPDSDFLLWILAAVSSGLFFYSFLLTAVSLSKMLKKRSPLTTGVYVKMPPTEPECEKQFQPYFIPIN


Key:
[1] = target: T1, recombinant human CTLA4 extracellular …; test: ELISA, wells coated with human CTLA4, assay pH 7.4; lot 6972 in His buffer, T2W; unit from the axis Log[ng/mL]
Procedure: (§1) Both ELISA and FACS analysis were used to measure the binding activity. […] The amount of bound antibodies was quantified using anti-human IgG antibody conjugated to HRP. The absorbance at 450 nm in each measurement was proportional to the amount of antibodies bound. […] EC50 value (in ng/mL) for binding to human CTLA4 was determined by absorbance at 450 nm against antibody concentration with Prism variable slope of four-parameter dose-response curve, which was calculated using the nonlinear fit (variable slope, four parameters) model built into GraphPad Prism software (version 7.03). The buffers tested included His buffer (His), Tris buffer (Tris), Glutamine buffer (Glu) and no buffer.

[2] = target: T2, human CTLA4 expressed on the cell …; test: FACS, cells expressing human CTLA4, assay pH 6.0, MFI; lot 6972 in His buffer, T0; unit from the axis Log[ng/mL]
Procedure: (§2) The amount of bound antibodies was quantified using anti-human IgG antibody conjugated to fluorophores. The MFI in each reaction was proportional to the amount of antibodies bound. The EC₅₀ value (in ng/mL) for binding to human CTLA4 on cells was determined by MFI of the singlets population against antibody concentration with a Prism variable slope of four-parameter dose-response curve, which was calculated using the nonlinear fit (variable slope, four parameters) model built into GraphPad Prism software (version 7.03).

[3] = target: T2, human CTLA4 expressed on the cell …; test: FACS, cells expressing human CTLA4, assay pH 7.4, MFI; lot 6972 in Glu buffer, T2W; unit from the axis Log[ng/mL]
Procedure: as §2

[4] = target: T1, recombinant human CTLA4 extracellular …; test: ELISA, wells coated with human CTLA4, assay pH 6.0; lot 6978 in Glu buffer, T0; unit from the axis Log[ng/mL]
Procedure: as §1

[5] = target: T2, human CTLA4 expressed on the cell …; test: FACS, cells expressing human CTLA4, assay pH 7.4, MFI; lot 6978 in His buffer, T0; unit from the axis Log[ng/mL]
Procedure: as §2

[6] = target: T2, human CTLA4 expressed on the cell …; test: FACS, cells expressing human CTLA4, assay pH 6.0, MFI; lot 6978 in Glu buffer, T0; unit from the axis Log[ng/mL]
Procedure: as §2

[7] = target: T2, human CTLA4 expressed on the cell …; test: FACS, cells expressing human CTLA4, assay pH 7.4, MFI; lot 6978 in Glu buffer, T0; unit from the axis Log[ng/mL]
Procedure: as §2

[8] = target: T2, human CTLA4 expressed on the cell …; test: FACS, cells expressing human CTLA4, assay pH 6.0, MFI; lot 6978 in Glu buffer, T2W; unit from the axis Log[ng/mL]
Procedure: as §2

[9] = target: T2, human CTLA4 expressed on the cell …; test: FACS, cells expressing human CTLA4, assay pH 6.0, MFI; lot 6978 in Tris buffer, T2W; unit from the axis Log[ng/mL]
Procedure: as §2

[10] = target: T1, recombinant human CTLA4 extracellular …; test: ELISA, wells coated with human CTLA4, assay pH 6.0; lot 6978 without test buffer; same column repeated in FIG. 9E and FIG. 9F; unit from the axis Log[ng/mL]
Procedure: as §1

[11] = target: T2, human CTLA4 expressed on the cell …; test: FACS, cells expressing human CTLA4, assay pH 7.4, MFI; lot 6978 control without test buffer; same column repeated in FIG. 10E and FIG. 10F; unit from the axis Log[ng/mL]
Procedure: as §2

[12] = target: T2, human CTLA4 expressed on the cell …; test: FACS, CHO cells expressing human CTLA4 (CHO-huCTLA-4), pH 7.4, MFI; curve still rising at log 5, no plateau; no unit in the table, unit from the axis Log Antibodies [ng/ml]
Procedure: The amount of antibodies bound on the cells was quantified using anti-human IgG antibody conjugated to fluorophores. EC₅₀ values at pH 6.0 and 7.4 for binding to cells were calculated using the nonlinear fit (variable slope, four parameters) model built into GraphPad Prism software (version 7.03). The expression levels of human CTLA4 or cynomolgus CTLA4 on the surface of the CHO cells were determined using a BD QuantiBRITE™ PE kit.
At least two independent duplicate FACS experiments were performed for each antibody using each of the cell lines. The binding activities at different concentrations of the antibodies are plotted in these figures.

[13] = target: T1, recombinant human CTLA4 extracellular …; test: ELISA, wells coated with human CTLA4, assay pH 7.4; lot 6978 in Tris buffer, T2W; curve still rising at log 3 (OD450 at most about 0.3), no plateau; unit from the axis Log[ng/mL]
Procedure: as §1

| Binder | EC50 [1] [µg/mL] | EC50 [2] [µg/mL] | EC50 [3] [µg/mL] | EC50 [4] [µg/mL] | EC50 [5] [µg/mL] | EC50 [6] [µg/mL] | EC50 [7] [µg/mL] | EC50 [8] [µg/mL] | EC50 [9] [µg/mL] | EC50 [10] [µg/mL] | EC50 [11] [µg/mL] | EC50 [12] [µg/mL] | EC50 [13] [µg/mL] |
| --- | --- | --- | --- | --- | --- | --- | --- | --- | --- | --- | --- | --- | --- |
| BA-087-05-19 (antibody, V domains shown, Detected with anti-human IgG and a molecular weight of 146 kDa was used in SPR, so it was tested as a whole IgG; also called BA-087-05-019; BA-087-05-19 (# 6972)) VH: EVQLVESGGGLVQPGGSLRLSCAASGFTFSHYTMHWVRQAPGKGLEWVSFISYDGNNKYYADSVKGRFTISRDNSKNTLYLQMNSLRAEDTAVYYCARTGWLGPFDYWGQGTLVTVSS VL: AIQLTQSPSSLSASVGDRVTITCRASQYVGSSYLAWYLQKPGQSPQLLIYGAFSRATGIPARFSGSGSGTEFTLTISSLQSEDFAVYYCQQDGSSPWTFGQGTKVEIK | 0.0758 | 0.291 | 0.607 |  |  |  |  |  |  |  |  |  |  |
| BA-087-08-32 (antibody, V domains shown, Detected with anti-human IgG and a molecular weight of 146 kDa was used in SPR, so it was tested as a whole IgG; also called BA-087-08-032; BA-087-08-32 (# 6978)) VH: EVQLVQSGAEVKKPGATVKISCKVSGFTFSHYTMHWIRQSPSRGLEWLGFISYDGNYKYYADSVKGRFTISRDNAKNSLYLQMNSLRAEDTAVYYCARTGWLGPFDYWGQGTLVTVSS VL: EIVMTQSPATLSVSPGERATLSCRASQSVGSSYLAWYQQKPGKAPKLLIYGAFSRATGVPSRFSGSGSGTDFTLTISSLQPEDFATYYCQQDGSSPWTFGQGTKVEIK |  |  |  | 0.0337 | 0.849 | ~0.15 | 0.814 | 0.176 | ~0.152 | 0.0222 | 0.868 | 41.1 | 1.49 |
